Read-outs that look alike come from different tables or passages of the source.

Drawing on US20240228595A1 (YALE UNIVERSITY, published 2024), this text covers Kd, koff and kon for four molecules.

For assay [1], the target named is T1, SARS-COV-2 RBD-his tag protein (Sino Biological) (SARS-CoV-2, UniProt P0DTC2 319-541).
In assay [2] the target is T1, SARS-COV-2 RBD-his tag protein (Sino …). The source holds these as a separate data set.
The target is the same in assay [3]. This is another data set of the same source.

B1: Clone 6 (antibody, V domains shown)
VH: QVQLQQSAAELARPGASVKMSCKASGYTFTSYTMHWVKQRPGQGLEWIGYINPTSGYTEYNQNFKDKTTLTADKSSSTAYMQLNSLTSEDSAVYYCAREGHRVGPAYWGQGTLVTVSA
VL: not shown
A word on the Kd: it is the constant that tells how readily two partners part at equilibrium. By koff is commonly meant the rate constant with which the complex falls apart. Broadly, the kon is a measure of how fast the partners come together. A low value points to slow association. As to B1, in assay [1], the affinity, expressed as Kd, was 0.148 nM; the koff is 0.00056 s⁻¹; the on-rate (kon) is 3.77e+06 M⁻¹ s⁻¹. In assay [2], this molecule returned an equilibrium dissociation constant (Kd) of 2.27 nM, a koff of 0.00611 s⁻¹ and a kon of 2.69e+06 M⁻¹ s⁻¹.

B2: Clone 16 (Clone6-KiH-Clone2) bispecific antibody (bispecific antibody)
heavy 1: not shown
light 1: DIVLTQSPASLAVSLGQRATISCRASESVDNYGISFMNWFQQTPGQPPKLLIYGSSNQGSGVPARFSGSGSGTDFSLNIHPMEEDDTAMYFCQQSKEVPYTFGGGTKLEIKRTVAAPSVFIFPPSDEQLKSGTASVVCLLNNFYPREAKVQWKVDNALQSGNSQESVTEQDSKDSTYSLSSTLTLSKADYEKHKVYACEVTHQGLSSPVTKSFNRGEC
heavy 2: not shown
light 2: DIVLTQSPASLAVSLGQRATISCRASESVEYYGTSLMQWYQQKPGQPPKVLIYAASNVESGVPARFSGSGSGTDFSLNIHPVEEDDIAMYFCQQSRKVPWTFGGGTKLEIKRSSASTKGPSVFPLAPSSKSTSGGTAALGCLVKDYFPEPVTVSWNSGALTSGVHTFPAVLQSSGLYSLSSVVTVPSSSLGTQTYICNVNHKPSNTKVDKKVEPKSC
For B2, in assay [2], the affinity, expressed as Kd, was 2.95 nM; the koff came out at 0.00461 s⁻¹; the kon was 1.56e+06 M⁻¹ s⁻¹.

B3: Clone 2 (antibody, V domains shown)
VH: EVQLQQSGPELVKPGASVKISCKASGYSFTGYSMNWMKQSPEKSLEWIGEINPSTGGTTDNQKFKAKATLTVDKSSSTAYMQLKSLTSEDSAVYYCARSRGDYWGQGTSVTVSS
VL: DIVLTQSPASLAVSLGQRATISCRASESVEYYGTSLMQWYQQKPGQPPKVLIYAASNVESGVPARFSGSGSGTDFSLNIHPVEEDDIAMYFCQQSRKVPWTFGGGTKLEIKR
Consider B3, for which the Kd in assay [3] is 0.00158 nM; in assay [1], 0.0441 nM; in assay [2], 1.67 nM. Moreover, the dissociation rate constant (koff) in assay [3] worked out at 1.49e-07 s⁻¹; in assay [1] it was 7.09e-05 s⁻¹; in assay [2], 0.000853 s⁻¹. Moreover, the results for the kon in assay [3], in assay [1] and in assay [2] were 94500 M⁻¹ s⁻¹, 1.61e+06 M⁻¹ s⁻¹ and 511000 M⁻¹ s⁻¹, respectively.

B4: Clone 13 (antibody, human IgG1, kappa, V domains shown)
VH: EVQLVESGGGLVQPGGSLRLSCAASGFTFSGYSMNWVRQAPGKGLEWVAEINPSTGGTTDNQKFKARFTISRDNSKNTLYLQMNSLRAEDTAVYYCARSRGDYWGQGTLVTVSS
VL: DIQMTQSPSSLSASVGDRVTITCRASESVEYYGTSLMQWYQQKPGKAPKLLIYAASNVESGVPSRFSGSGSGTDFTLTISSLQPEDFATYYCQQSRKVPWTFGQGTKVEIKR
In assay [2], B4 registered an equilibrium dissociation constant (Kd) of 4.17 nM, a koff of 0.000497 s⁻¹ and a kon of 119000 M⁻¹ s⁻¹.
